In article PMC8438204 (2021):

B1: HigA2 (protein)
chain: MSNRDLFAELSSALVEAKQHSEGKLTLKTHHVNDVGELNISPDEIVSIREQFNMSRGVFARLLHTSSRTLENWEQGRSVPNGQAVTLLKLVQRHPETLSHIAEL
B2: HigB2 (protein)
chain: MKSVFVESTIFEKYRDEYLSDEEYRLFQAELMLNPKLGDVIQGTGGLRKIRVASKGKGKRGGSRIIYYFLDEKRRFYLLTIYGKNEMSDLNANQRKQLMAFMEAWRNEQS

Experiments:
Test in all cases: competition
HigB2 = biological target: B2
HigA2 3-23 peptide 3-23 = HigA2 3-23 peptide 3-23 (Vibrio cholerae, UniProt Q9KMA5)
HigA2 3-33 peptide 3-33 = HigA2 3-33 peptide 3-33 (Vibrio cholerae, UniProt Q9KMA5)

Binder | Kd (HigB2) [nM] | Kd (HigA2 3-23 peptide 3-23) [nM] | Kd (HigA2 3-33 peptide 3-33) [nM]
B1 | 0.016 | – | –
B2 | – | 0.003 | ~0.127
